From PMC4919469

How the values were obtained:
[1] = target: full-length Cdc42Q61L (human) (UniProt P60953); test: scintillation proximity assay; competition; free effector domain titrated into 30 nM Cdc42·[3H]GTP and 30 nM GST-ACK (in Fig. 7B GST-ACK or GST-WASP GBD) immobilised on a fluoromicrosphere; Kd from competition binding isotherms
[2] = target: Cdc42Δ7Q61L (human) (UniProt P60953); test: as above
Chain of Cdc42Δ7Q61L (human) (P60953 1-184 Q61L): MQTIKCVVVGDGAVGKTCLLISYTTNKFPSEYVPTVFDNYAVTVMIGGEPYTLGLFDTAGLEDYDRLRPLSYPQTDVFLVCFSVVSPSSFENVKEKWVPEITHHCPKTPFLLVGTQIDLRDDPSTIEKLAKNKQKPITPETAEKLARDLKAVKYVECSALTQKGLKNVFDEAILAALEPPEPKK

Chain of full-length Cdc42Q61L (human) (P60953 whole entry Q61L, the tested form may be a part): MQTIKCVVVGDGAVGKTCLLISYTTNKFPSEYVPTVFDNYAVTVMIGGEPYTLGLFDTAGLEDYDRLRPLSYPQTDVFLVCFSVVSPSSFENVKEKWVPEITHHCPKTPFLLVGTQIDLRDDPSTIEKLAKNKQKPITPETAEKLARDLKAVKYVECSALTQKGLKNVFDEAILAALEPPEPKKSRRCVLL

- Kd [1]: 11 nM
- Kd [2]: 32 nM
Substance: free ACK GBD (domain or fragment)
